The source of these data is article PMC12368637.

One may read the Kd as a measure of binding affinity in units of concentration. High values mean lower affinity, low ones higher affinity. What is called stoichiometry N is a count of units in the complex or per binding partner.

One assay has as its target Human cystatin C (human) (UniProt P01034). As to the kind of experiment: ITC; 300 uM HSA in the syringe, 30 uM HCC in the cell; PBS; 25.2 °C; MicroCal PEAQ-ITC; single set of identical sites model. In general terms: In ITC the heat of successive injections is recorded.
The target of assay [1] is Human serum albumin (human) (UniProt P02768). As to the kind of experiment: NMR (1H-15N HSQC and 15N relaxation); 15N-labelled V57G HCC with and without equimolar HSA (around 0.3 mM each); PBS, 90%/10% H2O/D2O, pH 7.0; 298 K.

In the assay with Human cystatin C (human), “Human serum albumin (from UniProt P02768 25-609) (natural protein)” gave a Kd of 1150 nM, a dH of 1.88 kcal/mol and a stoichiometry N of 0.642.
For “V57G mutant of human cystatin C (from UniProt P01034 27-146) (natural protein)”, in assay [1], the percent of V57G HCC that interacted with HSA came out at 4%.
